Test results published in the nanobody polyreactivity screen of Harvey et al. (2022).

Assay: yeast display, Sf9 membrane polyspecificity reagent, FACS + sequencing; frameworks hold sequencing errors
Method in brief: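 In a synthetic yeast display library (Saccharomyces cerevisiae BJ5465), nanobody expression was induced with galactose for 36–48 hours. FACS gates were set low and high (top ~1%) using anti-HA fluorescence for expression and streptavidin fluorescence for binding of the Sf9 membrane reagent. Each polyreactivity label is drawn from the gate of origin.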

Sequence	polyreactivity (PSR sort gate)
QVQLVESGGGLVQAGGSLRLSCSASGLTFYSNAMGWYRQAPGKERELVASISKRGATTYYADSVKGRFTISRDNAKNTVYLQMNSLKPEDTAVYYCAADLRITSYNSWGQGTQVTVSS	low polyreactivity
QVQLVESGGGLVQAGGSLRLSCSASGNIFKRYTMGWYRQAPGKERELVAAISGGDSTNYADSVKGRFTISRDNAKKTVYLQMNCLKPEDTAVYYCAGGGLTLWHGYILGYWGQGTQVTVSS	low polyreactivity
QVQLVESGGGLVQAGGSLRLSCSASGRIFGAYAMGWYRQAPGKERELVAAITSAGSAHYADYVKGRFTISRDNAKNTVYLQMNSLKPEDTAVYYCAADGIARAYVLFYAYDFLYDYWGQGTQVTVSS	low polyreactivity
QVQLVESGGGLVQAGGSLRLSCSASGRIFGYNAMGWSRQAPGKERELVAAISYSGTSTYYADSVKGRFTISRDKAKNTVYLQMNSLKPEDTAVYYCATLAYRWSVAYEYLGQGTQVTVSS	low polyreactivity
QVQLVESGGGLVQAGGSLRLSCSASGRIFSVYAMGWYRQAPGKERELVAAITWRGGSTYYADSVKGRFTISRDNAKNTVYLQMNSLKPEDTAVYYCAAVESGYGSKRFYYWGQGTQVTVSS	high polyreactivity
QVQLVESGGGLVQAGGSLRLSCSASGRIFYPYAMGWYRQAPGKERELVAAITRRTASTYYADSVKGRFTISRDNAKNTVYLQMNSLKPEDTAVYFCAADSYLKRPYYAGYYYWGQGTQVTVSS	high polyreactivity
QVQLVESGGGLVQAGGSLRLSCSASGRTFIVYAMGWYRQAPGKERELVAAITTSVGRTYYADSVKGRFTISRDNAKNTVYLQMNSLKPEDTAVYYCAADRLDGYSEYYYWGQGTQVTVSS	low polyreactivity
QVQLVESGGGLVQAGGSLRLSCSASGSIFDAYAMGWYRQAPGKERELVAAITTGGGSTYYADSVKGRFTISRDNAKNTVYLQMNSLKPEDTAVYYCAAEGFATDGWWYYKAYDDWGQGTQVTVSS	low polyreactivity
QVQLVESGGGLVQAGGSLRLSCSASGSIFDRYTIGWYRQAPWKERDLVAAITFGGGSTYYADSVKVRFTISRDNAKNTDYLQRNSLKPADTAVYYCAKQRHGKLGHILGYNYWGQGTQVTVSS	low polyreactivity
QVQLVESGGGLVQAGGSLRLSCSASGSIFYVYAMGWYRPAPGKERELVAAITSSGTTNYADSVKGRFTISRDNAKNTVYLQMNSLKPEDTAVYYCAADPDSGQVPFDYWVQGTQVTVSS	low polyreactivity
QVQLVESGGGLVQAGGSLRLSCSASGSIFYWYDMGWYRLAPGKERELVAAISSGGSTNYADSVKGRFTISRDNAKNTVYLQMISLKPEDTAVYYCNADVPLRYGPIYFRRLDYWGQGTQVTVSS	low polyreactivity
QVQLVESGGGLVQAGGSLRLSCSASGSISGYYAMGWYRQAPGKERELVASIRYTGARTYYADSVKGRFTISRDNAKNTVYLQMNSLKPEDTAVYYCAAERSWYTWFASDYDYWGQGTQVTVSS	low polyreactivity
QVQLVESGGGLVQAGGSLRLSCSASGSTFYGYAMGWYRQAPGKEWELVAAINWSGGSTYYADSVKGRFTISRDNAKNTVYLQMNSLKPEDTAVYYCNKAWLGSVSRRYYYWGQGTQVTVSS	high polyreactivity
QVQLVESGGGLVQAGGSLRLSCSASGSTFYRKTMGWYRQAPGKERELVAAISSGGGTKYADSVKGRFTISRDNAKNTVYLQMNSLKPEDTAVYYCAAVYYTLGYAYYPYIYYYWGQGTQVTVSS	high polyreactivity
QVQLVESGGGLVQAGGSLRLSCSASGSTITTYAMGWYRQAPGKERELVAAISTNGGRTCYADSVKGRFTISRDYAKNTVSLQMNSLKPEDTAVYYCAAEYGLYAPGYYYWGQGTQVTVSS	low polyreactivity
QVQLVESGGGLVQAGGSLRLSCSASGSTSGKYAMGWYRQAPGKESELVAGITKGGGGTYYADSVKGRFTISRDNAKNTVYLQMNSLKPEDTAVYYCAKYYGSGYYIYDYWGQGTQVTVSS	low polyreactivity

Sequence	polyreactivity (PSR sort gate)
QVQLVESGGGLVQAGGSLRLSCSASGSTSYYYAMGWYRQAPGKERELVATISTTGAGTYYADSVKGRFTISRDNAKTTVYLQMNILKPEDTAVFYCAKDGKASRDDAEYYYWGQGTQVTVSS	low polyreactivity
QVQLVESGGGLVQAGGSLRLSCSASGSTYYNAMGWYRQAPGKERQLVAAIRFRSGSTYYADSVKGRFTISRDNAKNTVYLQMNSLKPEDTAVYYCAADNKRSWRYAYTYWGQGTQVTVSS	high polyreactivity
QVQLVESGGGLVQAGGSLRLSCSASGTILYFYAMGWYRQAQGKERELVAAIDSGGSTDYADSVKGRFTISRYNAKNTVYLQMNSLKPEDTAVYYCAAYPWERYTWWYVYRGHVYWGQGTQVTVSS	low polyreactivity
QVQLVESGGGLVQAGGSLRLSCSASGTTFRYNAMGRYRQAPGKERQLVAAITSGGTTNYADSVKGRFTISRDNAKNTVYLQMNSLKPEDTAVYYCAKKRPGFLRYGSIGEFQYDYWGQGTQVTVSS	low polyreactivity
QVQLVESGGGLVQAGGSLRLSCSASGYIFDYNAMGWYIQAPGKERELVAAITFRDGSTYADSVKGRFTISRDNAKNTVYLQMNSLKPEDTAVYYCNRRSQVHSHSKHDYWGQGTQVTVSS	low polyreactivity
QVQLVESGGGLVQAGGSLRLSCSASGYIFSSNTMGWYRQAPGTERELVAGISGRTGRTYYADSVKGRFTISRDNAKNTVYLQMNSLKPEDTAVYYCARVPYQGYPRRRLSGYYYWGQGTQVTVSS	high polyreactivity
QVQLVESGGGLVQAGGSLRLSCTASGIIFGTYAMGWYRQAPGKERELVAAISSSGVSTYYADSVKGRFTISRDNAKNTVYLQMNSLKPEDTAVYYCAAPLHYGYYYWGQGTQVTVSS	high polyreactivity
QVQLVESGGGLVQAGGSLRLSCTASGNTFALYAMGWYRQAPGKERELVARISRRGGSTYYADSVKGRFTISRDNAKNTVYLQMNSLKPEDTAVYYCAKTHSYYPWEVNYWGQGTQVTVSS	high polyreactivity
QVQLVESGGGLVQAGGSLRLSCTASGRTLYNYTMGWYRQAPGKERELVAAISRGGGSTYYADSVKGRFTISRDNAKNTVYLQMNSLKQEDTAVYYCATDQTYPYCGGGDYWGQGTQVTVSS	low polyreactivity
QVQLVESGGGLVQAGGSLRLSFAASGFTFSAYAMGWYRQAPGKERELVASISGSAGSTYYADTVKGRFTISRYNAKNTVYLHMNSLKPEDTAVYYCNARRRQWQARYDYWGQGTQITVSS	high polyreactivity
QVQLVESGGGLVQAGGSLRLSFAASGIIFDLYAMGWYRQAPGKERELVAAITRSVGSTYYADSVKGRFTISRDNAKNTVYLQMNSLKPEDTAVYFCAAVRFAYGYTYDYWGQGTQVTVSS	high polyreactivity
QVQLVESGGGLVQAGGSLRLSFAASGIIFGWYAVGWYRQAHGKDRELVAAINIGGSTNYADSVKGRFTISRYNAKNTVYLQMNSLKPEDTADYYCNARTPGYRYGRDYWGQGTQVTVSS	high polyreactivity
QVQLVESGGGLVQAGGSLRLSFAASGIIFTRYAMGWYRQAPGKERELVARISWRGSSTSYPDSVKGRFTISRDNAKNTVYLQMNSLKPEDSAVYYCAARYLYLWADYEFGYWVQGTQVTVSS	high polyreactivity
QVQLVESGGGLVQAGGSLRLSFAASGITFASNTMGWYRQAPGKERELVAAITRGDNTYYADSVKGRFTISRDNAKNTVYLQMKSLKPEDTAVYYCAKDPHGVEPVPDGYDYWGQGTQVTVSS	low polyreactivity
QVQLVESGGGLVQAGGSLRLSFAASGRIFQFYGMGWYRQAPGKEREFVAAITRNGGNTYYADSVKGRYTISRDNAKNTVDLQMNSLKPEDTAVYYCAAANPRDHRGANDYWGQGTQVTVSS	high polyreactivity
